# Assay results from PMC4731831, “Better than Nature: Nicotinamide Biomimetics That Outperform Natural Coenzymes” (Journal of the American Chemical Society, 2016).
# B1: NtDBR (Nicotiana tabacum) (protein)
# chain: MAEEVSNKQVILKNYVTGYPKESDMEIKNVTIKLKVPEGSNDVVVKNLYLSCDPYMRSRMRKIEGSYVESFAPGSPITGYGVAKVLESGDPKFQKGDLVWGMTGWEEYSIITPTQTLFKIHDKDVPLSYYTGILGMPGMTAYAGFHEVCSPKKGETVFVSAASGAVGQLVGQFAKMLGCYVVGSAGSKEKVDLLKSKFGFDEAFNYKEEQDLSAALKRYFPDGIDIYFENVGGKMLDAVLVNMKLYGRIAVCGMISQYNLEQTEGVHNLFCLITKRIRMEGFLVFDYYHLYPKYLEMVIPQIKAGKVVYVEDVAHGLESAPTALVGLFSGRNIGKQVVMVSRE
# Substrate: NC(=O)C1=CN([C@@H]2O[C@H](COP(=O)(O)OP(=O)(O)OC[C@H]3O[C@@H](n4cnc5c(N)ncnc54)[C@H](OP(=O)(O)O)[C@@H]3O)[C@@H](O)[C@H]2O)C=CC1
# Experiment: purified protein
# Details: reduction of cinnamaldehyde; varied: cofactor
protein,measurement,value
B1,Km,91 µM
same,kcat,40 min^–1
